T1: Corticotropin-releasing hormone (CRH)
T1 construct: 41-amino acid peptide derived from a 196-amino acid preprohormone (Genbank EAW86897.1); also called CRF; CRF peptide
T1 peptide: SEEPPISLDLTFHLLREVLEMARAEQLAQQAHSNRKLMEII

B1: ScFv comprising the heavy and light variable regions of Antibody A (scFv)
scFv: DGVQCEVKLVESGGGLVKPGGSLKLSCAASGFTFSSYAMSWVRQTPEKRLEWVASISIGGSTYYRDSVKGRCTISRDNAKNILYLQMRSLRSEDTAMYYCARRGMDYWGQGTSVTVSSGGGGSGGGGSGGGGSDIVITQDELSNPVTSGESVSISCRSSKSLLYKDGKTYLNWFLQRPGQSPQLLIYLMSTRASGVSDRFSGSGSGTDFTLEISRVKAEDVGVYYCQQLVEYPLTFGAGTKLELKRASGHHHHHHGSDYKDDDDK
notes: also called Antibody A scFv
B2: ScFv comprising the heavy and light variable regions of Antibody B (scFv)
scFv: DEVQLQQSGPELVKPGVSMKISCKASGYSFTDSTMNWVKQSHGKNLEWIGLIHPDNGGTIYNQKFKGKATLTVHKSSSTAYMELLSLTSEDSAVYYCANGFAYWGQGTLVTVSAAKTTPPSVYPLAPGSAAGGGGSGGGGSGGGGSDVVMTQTPLSLPVSLGDQASISCRSSQSLLHSNGNTYLHWYLQKPGQSPELLIYKVSNRFSGVPDRFSGSGSGTDFTLKISRVEAEDLGVYFCSQSTHVPLTFGAGTKLELKGSHHHHHHGSDYKDDDDK
notes: also called Antibody B scFv
B3: anti-CRH antibody B (antibody, V domains shown)
VH: EVQLQQSGPELVKPGVSMKISCKASGYSFTDSTMNWVKQSHGKNLEWIGLIHPDNGGTIYNQKFKGKATLTVHKSSSTAYMELLSLTSEDSAVYYCANGFAYWGQGTLVTVSA
VL: DVVMTQTPLSLPVSLGDQASISCRSSQSLLHSNGNTYLHWYLQKPGQSPELLIYKVSNRFSGVPDRFSGSGSGTDFTLKISRVEAEDLGVYFCSQSTHVPLTFGAGTKLELK
notes: Mouse monoclonal antibody raised with Peptide B (CRH 1-21), purified (QED bio); It was detected with anti-mouse IgG-HRP, and mouse IgG1 served as isotype control in vivo
B4: anti-CRH antibody A (antibody, V domains shown)
VH: EVKLVESGGGLVKPGGSLKLSCAASGFTFSSYAMSWVRQTPEKRLEWVASISIGGSTYYRDSVKGRCTISRDNAKNILYLQMRSLRSEDTAMYYCARRGMDYWGQGTSVTVSS
VL: DIVITQDELSNPVTSGESVSISCRSSKSLLYKDGKTYLNWFLQRPGQSPQLLIYLMSTRASGVSDRFSGSGSGTDFTLEISRVKAEDVGVYYCQQLVEYPLTFGAGTKLELK
notes: Mouse monoclonal antibody raised with Peptide A (CRH 1-15)

How the values were obtained:
[1] = molecular target: T1, Corticotropin-releasing hormone (CRH); assay: direct CRH ELISA with lysate of transfected HEK 293t cells
Experimental: ScFv constructs offer the advantage of being able to be delivered to the brain via AAV vectors. DNA constructs for ScFv's composed of the heavy and light variable regions of Antibody A and Antibody B, connected by a linker peptide, were generated. The amino acid sequences of the Antibody A and Antibody B scFvs are set forth in SEQ ID NOs: 22 and 23, respectively. DNA constructs were then transfected into Human Embryonic Kidney (HEK) 293t cells and incubated 48 hours. Cells were then lysed and analyzed for CRH binding via a direct CRH ELISA.

[2] = molecular target: T1, Corticotropin-releasing hormone (CRH); assay: method not stated (FIG. 2, affinity of monoclonal antibodies to CRH)
[3] = molecular target: T1, Corticotropin-releasing hormone (CRH); assay: Octet red BLI, CRF peptide against Antibody B at 300 nM to 0.412 nM; same value printed in all seven rows of the table [upper table, CRF peptide]
[4] = molecular target: T1, Corticotropin-releasing hormone (CRH); assay: Octet red BLI, CRF peptide against Antibody B at 300 nM to 0.412 nM; kdis(1/s), same value printed in all seven rows of the table [upper table, CRF peptide]

Row | Binder | binding result [1] | Kd [2] [nM] | Kd [3] [nM] | kon [3] [M⁻¹ s⁻¹] | koff [4] [s⁻¹]
1 | B1 | binds |  |  |  | 
2 | B2 | binds |  |  |  | 
3 | B3 |  | 20.9 | < 0.001 | 97500 | < 1e-07
4 | B4 |  | < 0.001 |  |  | 

Source: patent US20210371514A1 (UNIVERSITY OF FLORIDA RESEARCH FOUNDATION, published 2021)
